We go through 23 molecules from patent US20240108738A1 (Bicycle, published 2024).

In assay [1] the target is T1, Human NKp46 His tag (Acro Biosystems, NC1-H52H4) (human, UniProt O76036 22-255).
T1 construct: bought; also called human NKp46-his tagged protein
Kind of assay: FP competition vs BCY15035. The protocol:
The untagged competitor peptides were diluted in assay buffer 25 mM HEPES, 100 mM NaCl, 0.01% P20, pH 7.4. to a top concentration of 5000 nM and diluted 2-fold in 11 steps. The human NKp46-his tagged protein (AcroBiosystems) was diluted to 40 nM final concentration in the assay. […] The total volume of 25 μL was prepared in black walled and flat-bottomed low binding low volume 384 well plates. Measurements were performed using Envision (PerkinElmer) equipped with the excitation filter FITC FP 480, emission filter FITC FP P-pol 535 and 2nd emission filter FITC FP S-pol 535 and set to 30 flashes. The gain was set in a well containing tracer alone without target protein.

Assay [2] addresses T2, Human NKp46 Fc tag (Acro Biosystems, NC1-H5257) (human, UniProt O76036 22-255).
T2 construct: bought; also called Fc-tagged human NKp46
The experiment in a line: SPR Method 1 and/or 2. The essentials: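 Fc-tagged human NKp46 captured on anti-human IgG surface (500–1000 RU); compounds run in PBS-P+ with 2% DMSO at 25 °C, 50 μL/min, 60 s association, 400 s dissociation. Double-referenced, DMSO-corrected; KD from steady-state 1:1 fit, kinetic constants from kinetic 1:1 fit where appropriate.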

In general, Ki refers to the equilibrium dissociation constant of an inhibitor or competing ligand from its target. Higher therefore signals weaker binding. A word on the Kd: it is a measure of binding affinity in units of concentration. The low end stands for a tighter complex, the high end for a looser complex.

Numbered stars: 1 amine (or outer) side, 2 acyl side, 3 side chain; on linkers, the order of the positions; unused ones are H or OH. Bridge positions count the residues as written; N and C are the ends. Square brackets hold non-standard residues; d marks the D form. Ends that are not written are not given here. * marks the point of attachment. TATA = O=C(CC[*:1])N1CN(C(=O)CC[*:2])CN(C(=O)CC[*:3])C1; Ala(2-furyl) = N[C@@H](Cc1ccco1)C(=O)O; 1Nal = N[C@@H](Cc1cccc2ccccc12)C(=O)O; 2Nal = N[C@@H](Cc1ccc2ccccc2c1)C(=O)O; Nva(3-Et) = CCC(CC)[C@H](N)C(=O)O; aIle = CC[C@@H](C)[C@H](N)C(=O)O; tBuAla = CC(C)(C)C[C@H](N)C(=O)O; Cba = N[C@@H](CC1CCC1)C(=O)O; Nle = CCCC[C@H](N)C(=O)O; Pent4ynoyl = C#CCCC(=O)*; Aib = CC(C)(N)C(=O)O

T1 sequence (O76036 22-255 limits assumed): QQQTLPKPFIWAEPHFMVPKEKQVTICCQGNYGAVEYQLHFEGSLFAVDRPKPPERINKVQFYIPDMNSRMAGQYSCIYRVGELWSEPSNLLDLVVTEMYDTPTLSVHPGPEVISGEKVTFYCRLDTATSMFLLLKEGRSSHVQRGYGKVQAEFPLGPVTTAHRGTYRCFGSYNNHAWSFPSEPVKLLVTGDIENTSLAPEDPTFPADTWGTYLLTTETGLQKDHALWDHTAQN
T2 sequence (O76036 22-255 limits assumed): as above

In the case of Ac-ACYLPDYLCGDEYCA-NH2 (linker 2-9-14 via TATA, scaffold TATA) [BCY15635], the affinity in assay [1] corresponds to a Ki of 61 nM.

With Ac-CYLPDYLCGDEYC-NH2 (linker 1-8-13 via TATA; not fully specified, scaffold TATA) [BCY15634], the Ki in assay [1] came out at 98 nM.

B1: BCY15648 (peptide)
peptide: ACYLPDW[tBuAla]CGDEYCA-NH2
modifications: linker 2-9-14 via TATA; N-terminus assumed
SMILES: CC(C)C[C@@H]1NC(=O)[C@H](Cc2ccc(O)cc2)NC(=O)[C@@H](NC(=O)[C@H](C)N)CSCCC(=O)N2CN3CN(C2)C(=O)CCSC[C@@H](C(=O)N[C@@H](C)C(N)=O)NC(=O)[C@H](Cc2ccc(O)cc2)NC(=O)[C@H](CCC(=O)O)NC(=O)[C@H](CC(=O)O)NC(=O)CNC(=O)[C@H](CSCCC3=O)NC(=O)[C@H](CC(C)(C)C)NC(=O)[C@H](Cc2c[nH]c3ccccc23)NC(=O)[C@H](CC(=O)O)NC(=O)[C@@H]2CCCN2C1=O
notes: scaffold TATA
In assay [1], B1 had a Ki of 1620 nM.

As to ACDLTTHNCLWGVCA-NH2 (linker 2-9-14 via TATA; also: scaffold TATA, TATB or TBMT, scaffold TATA) [BCY15108], in assay [2], binding was put at a Kd of 642 nM.

B2: BCY16834 (peptide)
peptide: ACK(Pent4ynoyl)LPDYLCGDEYCA-NH2
modifications: linker 2-9-14 via TATA; N-terminus assumed
SMILES: C#CCCC(=O)NCCCC[C@@H]1NC(=O)[C@@H](NC(=O)[C@H](C)N)CSCCC(=O)N2CN3CN(C2)C(=O)CCSC[C@@H](C(=O)N[C@@H](C)C(N)=O)NC(=O)[C@H](Cc2ccc(O)cc2)NC(=O)[C@H](CCC(=O)O)NC(=O)[C@H](CC(=O)O)NC(=O)CNC(=O)[C@H](CSCCC3=O)NC(=O)[C@H](CC(C)C)NC(=O)[C@H](Cc2ccc(O)cc2)NC(=O)[C@H](CC(=O)O)NC(=O)[C@@H]2CCCN2C(=O)[C@H](CC(C)C)NC1=O
notes: scaffold TATA
In turn, B2 came in with a Kd in assay [2] of 83 nM.

B3: BCY19732 (peptide)
peptide: ACDLTT[Ala(2-furyl)]NCQWGICA-NH2
modifications: linker 2-9-14 via TATA; N-terminus assumed
SMILES: CC[C@H](C)[C@@H]1NC(=O)CNC(=O)[C@H](Cc2c[nH]c3ccccc23)NC(=O)[C@H](CCC(N)=O)NC(=O)[C@@H]2CSCCC(=O)N3CN(CN(C3)C(=O)CCSC[C@@H](C(=O)N[C@@H](C)C(N)=O)NC1=O)C(=O)CCSC[C@H](NC(=O)[C@H](C)N)C(=O)N[C@@H](CC(=O)O)C(=O)N[C@@H](CC(C)C)C(=O)N[C@@H]([C@@H](C)O)C(=O)N[C@@H]([C@@H](C)O)C(=O)N[C@@H](Cc1ccco1)C(=O)N[C@@H](CC(N)=O)C(=O)N2
notes: scaffold TATA
In assay [2], B3 returned a Kd of 964 nM.

B4: BCY19734 (peptide)
peptide: ACDLTTHNCQWG[Nle]CA-NH2
modifications: linker 2-9-14 via TATA; N-terminus assumed
SMILES: CCCC[C@@H]1NC(=O)CNC(=O)[C@H](Cc2c[nH]c3ccccc23)NC(=O)[C@H](CCC(N)=O)NC(=O)[C@@H]2CSCCC(=O)N3CN(CN(C3)C(=O)CCSC[C@@H](C(=O)N[C@@H](C)C(N)=O)NC1=O)C(=O)CCSC[C@H](NC(=O)[C@H](C)N)C(=O)N[C@@H](CC(=O)O)C(=O)N[C@@H](CC(C)C)C(=O)N[C@@H]([C@@H](C)O)C(=O)N[C@@H]([C@@H](C)O)C(=O)N[C@@H](Cc1c[nH]cn1)C(=O)N[C@@H](CC(N)=O)C(=O)N2
notes: scaffold TATA
For the molecule B4, the Kd in assay [2] was found to be 611 nM.

B5: BCY17224 (peptide)
peptide: Ac-CY[Cba]PDYLC[dA]DEYCK(Pent4ynoyl)-NH2
modifications: linker 1-8-13 via TATA
SMILES: C#CCCC(=O)NCCCC[C@H](NC(=O)[C@@H]1CSCCC(=O)N2CN3CN(C2)C(=O)CCSC[C@H](NC(=O)[C@H](CC(C)C)NC(=O)[C@H](Cc2ccc(O)cc2)NC(=O)[C@H](CC(=O)O)NC(=O)[C@@H]2CCCN2C(=O)[C@H](CC2CCC2)NC(=O)[C@H](Cc2ccc(O)cc2)NC(=O)[C@@H](NC(C)=O)CSCCC3=O)C(=O)N[C@H](C)C(=O)N[C@@H](CC(=O)O)C(=O)N[C@@H](CCC(=O)O)C(=O)N[C@@H](Cc2ccc(O)cc2)C(=O)N1)C(N)=O
notes: scaffold TATA
Turning to B5, the affinity in assay [2], expressed as Kd, was 3.5 nM.

ACNLQKPCMKYPCA-NH2 (linker 2-8-13 via TATA; also: scaffold TATA, TATB or TBMT, scaffold TATA) [BCY14456] showed a Kd in assay [2] of 703 nM. This Kd is about 200-fold higher than that of the molecule before.

B6: BCY15643 (peptide)
peptide: ACYLPD[1Nal]LCGDEYCA-NH2
modifications: linker 2-9-14 via TATA; N-terminus assumed
SMILES: CC(C)C[C@@H]1NC(=O)[C@H](Cc2cccc3ccccc23)NC(=O)[C@H](CC(=O)O)NC(=O)[C@@H]2CCCN2C(=O)[C@H](CC(C)C)NC(=O)[C@H](Cc2ccc(O)cc2)NC(=O)[C@@H](NC(=O)[C@H](C)N)CSCCC(=O)N2CN3CN(C2)C(=O)CCSC[C@@H](C(=O)N[C@@H](C)C(N)=O)NC(=O)[C@H](Cc2ccc(O)cc2)NC(=O)[C@H](CCC(=O)O)NC(=O)[C@H](CC(=O)O)NC(=O)CNC(=O)[C@H](CSCCC3=O)NC1=O
notes: scaffold TATA
As to B6, affinity in assay [1] was put at a Ki of 755 nM. This counts as sub-micromolar.

For the molecule ACNLQLHNCQWGICA-NH2 (linker 2-9-14 via TATA; also: scaffold TATA, TATB or TBMT, scaffold TATA) [BCY15568], the Kd in assay [2] worked out at 69 nM. This counts as double-digit nanomolar.

As to CYLPDYLCGDEYC-NH2 (linker 1-8-13 via TATA; also: scaffold TATA, TATB or TBMT, scaffold TATA) [BCY15633], the affinity in assay [1], expressed as Ki, was 86 nM.

B7: BCY15644 (peptide)
peptide: ACYLPD[2Nal]LCGDEYCA-NH2
modifications: linker 2-9-14 via TATA; N-terminus assumed
SMILES: CC(C)C[C@@H]1NC(=O)[C@H](Cc2ccc3ccccc3c2)NC(=O)[C@H](CC(=O)O)NC(=O)[C@@H]2CCCN2C(=O)[C@H](CC(C)C)NC(=O)[C@H](Cc2ccc(O)cc2)NC(=O)[C@@H](NC(=O)[C@H](C)N)CSCCC(=O)N2CN3CN(C2)C(=O)CCSC[C@@H](C(=O)N[C@@H](C)C(N)=O)NC(=O)[C@H](Cc2ccc(O)cc2)NC(=O)[C@H](CCC(=O)O)NC(=O)[C@H](CC(=O)O)NC(=O)CNC(=O)[C@H](CSCCC3=O)NC1=O
notes: scaffold TATA
Turning to B7, in assay [1], the Ki amounted to 159 nM.

ACNLQLHNCIWGVCA-NH2 (linker 2-9-14 via TATA; also: scaffold TATA, TATB or TBMT, scaffold TATA) [BCY15109] yielded a dissociation constant Kd in assay [2] of 274 nM.

B8: BCY19733 (peptide)
peptide: ACDLTTHNCQWG[Nva(3-Et)]CA-NH2
modifications: linker 2-9-14 via TATA; N-terminus assumed
SMILES: CCC(CC)[C@@H]1NC(=O)CNC(=O)[C@H](Cc2c[nH]c3ccccc23)NC(=O)[C@H](CCC(N)=O)NC(=O)[C@@H]2CSCCC(=O)N3CN(CN(C3)C(=O)CCSC[C@@H](C(=O)N[C@@H](C)C(N)=O)NC1=O)C(=O)CCSC[C@H](NC(=O)[C@H](C)N)C(=O)N[C@@H](CC(=O)O)C(=O)N[C@@H](CC(C)C)C(=O)N[C@@H]([C@@H](C)O)C(=O)N[C@@H]([C@@H](C)O)C(=O)N[C@@H](Cc1c[nH]cn1)C(=O)N[C@@H](CC(N)=O)C(=O)N2
notes: scaffold TATA
B8 gave an equilibrium dissociation constant (Kd) in assay [2] of 354 nM.

In assay [2], ACDLTTHNCQWG[aIle]CA-NH2 (linker 2-9-14 via TATA, scaffold TATA) [BCY19735] had a Kd of 460 nM.

Turning to ACYL[Aib]DYLCGDEYCA-NH2 (linker 2-9-14 via TATA, scaffold TATA) [BCY15642], in assay [1], the affinity, expressed as Ki, was 910 nM.

In the case of ACYLPDYLCGDEYCA-NH2 (linker 2-9-14 via TATA; also: scaffold TATA, TATB or TBMT, scaffold TATA) [BCY15100], the Ki in assay [1] worked out at 49 nM.

For ACYLPDYLCADEYCA-NH2 (linker 2-9-14 via TATA; also: cyclised with TATA, TATB or TBMT, scaffold TATA) [BCY15659], the Ki in assay [1] came to 226 nM.

Molecule ACYLPDYLCGDAYCA-NH2 (linker 2-9-14 via TATA; also: cyclised with TATA, TATB or TBMT, scaffold TATA) [BCY15661] yielded a Ki in assay [1] of 1780 nM.

In turn, ACYLPDYLCGDEACA-NH2 (linker 2-9-14 via TATA; also: cyclised with TATA, TATB or TBMT, scaffold TATA) [BCY15662] gave a Ki in assay [1] of 672 nM.

Consider ACALPDYLCGDEYCA-NH2 (linker 2-9-14 via TATA; also: cyclised with TATA, TATB or TBMT, scaffold TATA) [BCY15653], for which, in assay [1], the Ki was found to be 411 nM.

The molecule ACYLADYLCGDEYCA-NH2 (linker 2-9-14 via TATA; also: cyclised with TATA, TATB or TBMT, scaffold TATA) [BCY15655] gave a Ki in assay [1] of 324 nM. This Ki and that of the molecule before are within 1.5-fold of each other.
